System: CC(=O)Oc1c[nH]c2ccccc12
Test: purified protein

“CanB (Mtb β-carbonic anhydrase, Rv3588c) (Mycobacterium tuberculosis H37Rv)” was tested, and the Km was 4.5 ± 0.6 mM.
